Assay [1] addresses T1, MMP-26 catalytic domain, tagged with hexa-histidine (human, UniProt Q9NRE1 90-261).
T1 construct: the forward primer adds Met-Ala before it; also called MMP-26 target protein; Matrilysin-2; not shown: Also any N-terminal residues added by the forward primer (Met-Ala according to our card; the primers were not visible to me)
T1 sequence: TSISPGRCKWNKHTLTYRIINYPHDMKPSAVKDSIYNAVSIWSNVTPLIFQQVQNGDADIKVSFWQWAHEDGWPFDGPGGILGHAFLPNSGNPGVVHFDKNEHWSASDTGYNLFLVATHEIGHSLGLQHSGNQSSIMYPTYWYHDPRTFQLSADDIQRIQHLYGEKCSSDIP
Nature of the assay: bead-based ELISA, MMP-26 on nickel beads, IgG4 culture supernatant. As to the method: Reformatted and expressed full-length MMP-26 binding IgG4 antibodies were tested for specificity in a bead-based ELISA. Approximately 1.25 μg of MMP-26 protein was bound to nickel-coated magnetic beads (Novagen) which had been pre-blocked with phosphate buffered saline containing 5% (w/v) nonfat dry milk and 0.05% (v/v) Tween-20. The beads were washed in phosphate buffered saline containing 0.05% (v/v) Tween-20 (PBS-T) and 100 uls of unpurified cell culture supernatant containing transiently produced MMP-26-binding antibodies was added and incubated on a rotator for sixty minutes. The beads were washed with PBS-T and MMP-26-binding antibodies were detected with an HRP-conjugated anti-human secondary antibody. Data is expressed in fold over background where background consists of beads, blocking agent, and culture supernatant containing target antibody (Table 2; in this table, Results shown as fold over background (F>B) where background consists of beads, blocking agent, and culture supernatant).
A general note: An ELISA detects its analyte on a solid surface through an enzyme-linked reagent.

Assay [2] deals with T2, MMP-3 (UniProt P08254 100-477, limits assumed).
T2 construct: also called stromelysin-1
Nature of the assay: cross-reactivity ELISA on coated MMP. The protocol:
(§1) Twenty-one of the reformatted MMP-26 antibodies were tested for MMP cross reactivity by ELISA analysis. MMP-3, MMP-7, MMP-9, and MMP-12 were coated onto Immulon 2 HB 96-well plates at a concentration of 1 μg/ml for 1 hour at 37° C. The plates were blocked with PBS-T containing 5% (w/v) nonfat dry milk for thirty minutes and subsequently washed with PBS-T. Each antibody was tested for reactivity to all of the above mentioned MMPs at a concentration of 2 μg/ml with an incubation time of 1 hour. Bound antibody was detected with an HRP-conjugated anti-human secondary antibody (Table 3, NT=not tested.).

Assay [3] concerns the target T3, MMP-9 (UniProt P14780 107-707, limits assumed).
T3 construct: also called gelatinase
Briefly: cross-reactivity ELISA on coated MMP. As to the method: as §1

T2 sequence (P08254 100-477 limits assumed): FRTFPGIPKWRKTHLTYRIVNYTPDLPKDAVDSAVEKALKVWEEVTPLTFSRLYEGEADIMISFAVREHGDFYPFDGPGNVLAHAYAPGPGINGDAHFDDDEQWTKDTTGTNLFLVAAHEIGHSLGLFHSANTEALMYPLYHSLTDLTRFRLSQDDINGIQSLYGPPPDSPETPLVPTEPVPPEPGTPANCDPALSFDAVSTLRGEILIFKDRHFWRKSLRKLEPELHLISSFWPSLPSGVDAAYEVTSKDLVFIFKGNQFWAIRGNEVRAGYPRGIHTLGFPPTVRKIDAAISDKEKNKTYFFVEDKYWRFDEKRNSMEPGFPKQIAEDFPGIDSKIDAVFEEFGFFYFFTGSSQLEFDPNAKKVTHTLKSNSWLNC
T3 sequence (P14780 107-707 limits assumed): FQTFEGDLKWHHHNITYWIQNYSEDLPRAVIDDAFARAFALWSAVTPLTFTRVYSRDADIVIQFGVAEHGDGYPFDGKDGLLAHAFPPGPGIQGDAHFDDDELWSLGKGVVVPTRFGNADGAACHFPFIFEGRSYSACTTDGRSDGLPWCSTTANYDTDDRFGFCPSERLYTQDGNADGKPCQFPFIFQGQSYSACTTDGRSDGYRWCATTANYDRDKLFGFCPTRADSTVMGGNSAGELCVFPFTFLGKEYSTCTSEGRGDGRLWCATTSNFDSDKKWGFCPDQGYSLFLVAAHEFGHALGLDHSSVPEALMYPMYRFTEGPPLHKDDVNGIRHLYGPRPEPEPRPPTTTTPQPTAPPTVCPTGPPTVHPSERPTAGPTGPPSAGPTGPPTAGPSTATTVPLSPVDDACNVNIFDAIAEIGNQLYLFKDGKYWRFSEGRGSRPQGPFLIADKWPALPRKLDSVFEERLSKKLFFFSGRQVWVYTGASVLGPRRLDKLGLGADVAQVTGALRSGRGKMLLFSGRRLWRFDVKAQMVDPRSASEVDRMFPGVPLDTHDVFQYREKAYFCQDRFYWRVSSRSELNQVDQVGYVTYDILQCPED

B1: D08 (antibody, human IgG4, V domains shown)
VH: EVQLLESGGGLVQPGGSLRLSCAASGFTFSFYAMWWVRQAPGKGLEWVSRIYSSGGKTWYADSVKGRFTISRDNSKNTLYLQMNSLRAEDTAVYYCARVGMSTYAFDIWGQGTMVTVSS
VL: DIQMTQSPSSLSASVGDRVTITCRASQSISDYLNWYQQKPGKAPDLLIYAASSLQSGVPSRFSGSGSGTDFTLTVSSLQPEDFATYFCQQSYSIPLTFGGGTKVEITR
notes: whole human IgG4
For B1, the “F > B (fold over background)” value in assay [1] turned out to be 3 fold over background. Moreover, the binding result in assay [2] and in assay [3] was “no binding (tested: 2 µg/ml)” in each case.

B2: A05 (antibody, human IgG4, V domains shown)
VH: EVQLLESGGGLVQPGGSLRLSCAASGFTFSVYSMNWVRQAPGKGLEWVSYIVPSGGNTPYADSVKGRFTISRDNSKNTLYLQMNSLRAEDTAVYYCARDGAATVDLDYWGQGTLVTVSS
VL: DIQMTQSPSSLSLSPGERATLSCRASQSVSSYLAWYQQKPGQAPRLLIYDASNRATGIPARFSGSGSGTDFTLTISSLEPEDFAVYYCQQRSNWPRTFGGGTKVEIKR
notes: whole human IgG4
For the molecule B2, the “F > B (fold over background)” value in assay [1] was 2.48 fold over background. Further, the binding result in assay [2] and in assay [3] was “no binding (tested: 2 µg/ml)” in each case.

B3: A06 (antibody, human IgG4, V domains shown)
VH: EVQLLESGGGLVQPGGSLRLSCAASGFTFSPYHMGWVRQAPGKGLEWVSGIYPSGGWTNYADSVKGRFTISRDNSKNTLYLQMNSLRAEDTAVYYCARDGYSSGWFRYWGQGTLVTVSS
VL: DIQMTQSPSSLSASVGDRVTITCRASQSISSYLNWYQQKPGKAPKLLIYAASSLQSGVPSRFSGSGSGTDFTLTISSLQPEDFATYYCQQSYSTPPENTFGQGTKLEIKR
notes: whole human IgG4
As to B3, in assay [1], the “F > B (fold over background)” value came to 5.4 fold over background. The binding result in assay [2] and in assay [3] was “no binding (tested: 2 µg/ml)” in each case.

B4: D07 (antibody, human IgG4, V domains shown)
VH: EVQLLESGGGLVQPGGSLRLSCAASGFTFSEYNMFWVRQAPGKGLEWVSYIYSSGGSTDYADSVKGRFTISRDNSKNTLYLQMNSLRAEDTAVYYCARVGIAARPFDPWGQGTLVTVSS
VL: QSELTQPASVSGSPGQSITISCTGTNSDIGGYNYVSWYQQHPGKVPKLLIFEVNNRPSGVSSRFSGSKSGDTASLTISGLQPEDEAVYYCGSFTVSVTYVFGTGTKVTVLG
notes: whole human IgG4
With B4, the “F > B (fold over background)” value in assay [1] is 3.3 fold over background. Besides, the binding result in assay [2] and in assay [3] was “no binding (tested: 2 µg/ml)” each time.

B5: D06 (antibody, human IgG4, V domains shown)
VH: EVQLLESGGGLVQPGGSLRLSCAASGFTFSGYIMEWVRQAPGKGLEWVSVIVSSGGFTMYADSVKGRFTISRDNSKNTLYLQMNSLRAEDTAVYYCARVGDSKGGYYLDYWGQGTLVTVSS
VL: DIQMTQSPSSLSASVGDRVTITCRTSQIINTYLNWYQQKPGKAPKLLIYAASTLQGGVPSRFSGSGSGTDFTLTIKSLQPDDFATYYCQQSYTSPRTFGQGTKVEIKR
notes: whole human IgG4
B5: the “F > B (fold over background)” value in assay [1] amounted to 3.5 fold over background. For the same molecule, the binding result in assay [2] and in assay [3] was “no binding (tested: 2 µg/ml)” each time.

B6: D02 (antibody, human IgG4, V domains shown)
VH: EVQLLESGGGLVQPGGSLRLSCAASGFTFSWYDMAWVRQAPGKGLEWVSRIVPSGGHTSYADSVKGRFTISRDNFKNTLYLQMNSLRAEDTAVYYCARRASRPEFFDYWGQGALVTVSS
VL: DIQMTQSPSFLSASVGDRVTITCRASQGISTYLAWYQQKPGKAPKVLIYTASTLQSGVPSRFSGSGSGTEFTLTISSLQPEDFATYYCQQSYITPPEVTFGPGTKVDIKR
notes: whole human IgG4
In the case of B6, in assay [1], the “F > B (fold over background)” value was 3.3 fold over background. Moreover, the binding result in assay [2] and in assay [3] was “no binding (tested: 2 µg/ml)” in each case.

B7: A07 (antibody, human IgG4, V domains shown)
VH: EVQLLESGGGLVQPGGSLRLSCAASGFTFSEYNMMWVRQAPGKGLEWVSVISPSGGGTLYADSVKGRFTISRDNSKNTLYLQMNSLRAEDTAVYYCARDLNNSSPPDSNDAFDIWGRGTMVTVSS
VL: QSELTQPPSASGSPGQSVTISCTGTSSDVGGYNYVSWYQQHPDKAPKLLIYEVTQRPSGVPDRFSGSRSGNTASLTVSGLQAEDEADYYCSSYAGRNNLYVFGPGTKVTVLG
notes: whole human IgG4
As for B7, the “F > B (fold over background)” value in assay [1] came to 8.38 fold over background. Further, the binding result in assay [2] and in assay [3] was “no binding (tested: 2 µg/ml)” in each case.

B8: D03 (antibody, human IgG4, V domains shown)
VH: EVQLLESGGGLVQPGGSLRLSCAASGFTFSWYRMDWVRQAPGKGLEWVSVIGSSGGMTYYADSVKGRFTISRDNSKNTLYLQMNSLRAEDTAVYYCARRVVGGAGMDVWGQGTTVTVSS
VL: DIQMTQSPSAMSASVGDRVTITCRASQVMINYIAWFRQKPGKVPERLIYAASTLQNGVPSRFSGSGSGTDFTLTISRLEPEDFAVYYCQHRITWPPALTFGGGTTVEIKR
notes: whole human IgG4
Turning to B8, in assay [1], the “F > B (fold over background)” value turned out to be 2.4 fold over background. Further, the binding result in assay [2] and in assay [3] was “no binding (tested: 2 µg/ml)” each time.

B9: D04 (antibody, human IgG4, V domains shown)
VH: EVQLLESGGGLVQPGGSLRLSCAASGFTFSDYQMMWVRQAPGKGLEWVSRISPSGGMTRYADSVKGRFTISRDNSKNTLYLPMNSLRAEDTAVYYCARSGPYYFDYWGQGTLVTVSS
VL: DIQMTQSPSSLSASVGDRVAITCRASQSIDTYLNWYQQKPGKAPKLLIYAASKLEDGVPSRFSGSGTGTDFTLTIRSLQPEDFASYFCQQSYSSPGITFGPGTKVEIKR
notes: whole human IgG4
As to B9, the “F > B (fold over background)” value in assay [1] is 2.6 fold over background. Also, the binding result in assay [2] and in assay [3] was “no binding (tested: 2 µg/ml)” each time.

B10: A09 (antibody, human IgG4, V domains shown)
VH: EVQLLESGGGLVQPGGSLRLSCAASGFTFSWYDMYWVRQAPGKGLEWVSSIYSSGGYTAYADSVKGRFTISRDNSKNTLYLQMNSLRAEDTAVYYCAKDRDPCSRTTCYNWFDPWGQGTLVTVSS
VL: QSELTQPPSASGTPGQRVTISCSGGSSNIGSNFVYWYRQLPGTAPKLLIYRNYQRPSGVPDRFSGSKSGTSASLAISGLLSEDEADYYCAAWDDNVGGVFGSGTKVTVLG
notes: whole human IgG4
On to B10, for which the “F > B (fold over background)” value in assay [1] worked out at 2.5 fold over background. Also, the binding result in assay [2] and in assay [3] was “no binding (tested: 2 µg/ml)” throughout.

B11: D01 (antibody, V domains shown)
VH: EVQLLESGGGLVQPGGSLRLSCAASGFTFSMYLMFWVRQAPGKGLEWVSVISSSGGETSYADSVKGRFTISRDNSKNTLYLQMNSLRAEDTAVYYCARQVSDWTRLYSFDYWGQGTLVTVSS
VL: QSELTQPPSASGTPGQRITISCSGSSSNIGSNYVYWYQQFPETAPKLLISRNDQRPSGVPDRFSGSKSGTSASLAISGLRSEDEADYYCASWDDSLSGVVFGGGTKLTVLG
notes: whole human IgG4
For B11, the “F > B (fold over background)” value in assay [1] was 3 fold over background. Also, the binding result in assay [2] and in assay [3] was “no binding (tested: 2 µg/ml)” throughout.

B12: A04 (antibody, human IgG4, V domains shown)
VH: EVQLLESGGGLVQPGGSLRLSCAASGFTFSEYNMAWVRQAPGKGLEWVSRIGSSGGKTKYADSVKGRFTISRDNSKNTLYLQMNSLRAEDTAVYYCARDEAPDYGDDAEAFDIWGQGTMVTVSS
VL: QSALTQPPSASGTPGQRVTISCSGGYSNMGSNYAHWYQQVPGTAPKLLIYNNNQRPSGVPDRFSGSKSGTSASLAISGLRSEDEADYYCAAWDENLSGPVFGTGTKVTVLG
notes: whole human IgG4
For B12, the “F > B (fold over background)” value in assay [1] is 3.17 fold over background. The binding result in assay [2] and in assay [3] was “no binding (tested: 2 µg/ml)” in each case.

B13: A08 (antibody, human IgG4, V domains shown)
VH: EVQLLESGGGLVQPGGSLRLSCAASGFTFSVYDMPWVRQAPGKGLEWVSVIYPSGGFTRYADSVKGRFTISRDNSKNTLYLQMNSLRAEDTAVYYCAADPTIQLWAYYYGMDVWGQGTTVTVSS
VL: QSVLTQPPSVSGTPGQRVTISCSGGYPNMGSNYAHWYQQLPGTAPKLLIYNDNQRPSGVPDRFSGSKSGTSASLAISGLRSEDEADYYCAAWDDSLSGPVFGGGTKLTVLG
notes: whole human IgG4
B13: the “F > B (fold over background)” value in assay [1] came out at 1.94 fold over background. Moreover, the binding result in assay [2] and in assay [3] was “no binding (tested: 2 µg/ml)” throughout.

B14: D09 (antibody, V domains shown)
VH: EVQLLESGGGLVQPGGSLRLSCAASGFTFSHYNMHWVRQAPGKGLEWVSGIVSSGGNTGYADSVKGRFTISRDNSKNTLYLQMNSLRAEDTAVDYCARVVRYSSGWYYWFDPWGQGTLVTVSS
VL: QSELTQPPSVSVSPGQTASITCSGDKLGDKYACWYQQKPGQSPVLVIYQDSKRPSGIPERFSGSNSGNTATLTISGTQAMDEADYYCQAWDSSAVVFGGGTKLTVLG
notes: whole human IgG4
On to B14, for which the “F > B (fold over background)” value in assay [1] came out at 4.3 fold over background. Also, the binding result in assay [2] and in assay [3] was “no binding (tested: 2 µg/ml)” each time.

(Values after patent US7514534 (DYAX, dated 2009).)
